Experimental data taken from paper PMC6776900, “PPM1G forms a PPP‐type phosphatase holoenzyme with B56δ that maintains adherens junction integrity” (EMBO Reports, 2019).

Experiments:
Experiment in all cases: BLI; Octet Red 96; His-tagged PPM1G or PPP2R1A immobilised on Ni-NTA biosensors, GST-B56δ proteins in solution (100–400 nm); 50 mM Tris pH 7.5, 300 mM NaCl, 0.01% NP-40 Igepal, 1 mM DTT; 25 °C
Conditions in all cases: both partners purified
GST-B56δ = target: T1, GST-B56δ (human, UniProt Q14738 1-602)
T1 construct: PP2A regulatory subunit B56δ (PPP2R5D), human cDNA, full-length protein; also called GST-B56δ wild type (WT); GST-tagged B56δ; source: E. coli BL21 (DE3), purified (glutathione Sepharose)
T1 sequence (Q14738 whole entry, stated change not applied): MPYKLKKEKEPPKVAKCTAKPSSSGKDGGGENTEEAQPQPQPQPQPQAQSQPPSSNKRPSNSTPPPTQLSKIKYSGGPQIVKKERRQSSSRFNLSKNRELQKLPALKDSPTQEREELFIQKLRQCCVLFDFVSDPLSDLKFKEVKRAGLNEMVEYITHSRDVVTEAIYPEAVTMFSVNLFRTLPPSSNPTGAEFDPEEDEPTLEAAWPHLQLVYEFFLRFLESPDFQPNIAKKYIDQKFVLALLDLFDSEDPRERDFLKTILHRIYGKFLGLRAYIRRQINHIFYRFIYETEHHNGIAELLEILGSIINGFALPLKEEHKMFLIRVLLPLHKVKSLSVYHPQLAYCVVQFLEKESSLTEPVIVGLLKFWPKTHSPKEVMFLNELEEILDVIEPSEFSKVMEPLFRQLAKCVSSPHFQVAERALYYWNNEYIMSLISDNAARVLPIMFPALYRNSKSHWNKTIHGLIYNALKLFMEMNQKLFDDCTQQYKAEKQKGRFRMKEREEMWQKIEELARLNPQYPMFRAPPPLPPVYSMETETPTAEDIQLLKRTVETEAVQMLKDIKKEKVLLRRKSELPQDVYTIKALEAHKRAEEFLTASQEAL

GST-B56δ H282A = target: T2, GST-B56δ H282A (human, UniProt Q14738 1-602, H282A)
T2 construct: B56δ (PPP2R5D), human cDNA, full length, point mutant; source: E. coli BL21 (DE3), purified (glutathione Sepharose)
T2 sequence (Q14738 whole entry H282A): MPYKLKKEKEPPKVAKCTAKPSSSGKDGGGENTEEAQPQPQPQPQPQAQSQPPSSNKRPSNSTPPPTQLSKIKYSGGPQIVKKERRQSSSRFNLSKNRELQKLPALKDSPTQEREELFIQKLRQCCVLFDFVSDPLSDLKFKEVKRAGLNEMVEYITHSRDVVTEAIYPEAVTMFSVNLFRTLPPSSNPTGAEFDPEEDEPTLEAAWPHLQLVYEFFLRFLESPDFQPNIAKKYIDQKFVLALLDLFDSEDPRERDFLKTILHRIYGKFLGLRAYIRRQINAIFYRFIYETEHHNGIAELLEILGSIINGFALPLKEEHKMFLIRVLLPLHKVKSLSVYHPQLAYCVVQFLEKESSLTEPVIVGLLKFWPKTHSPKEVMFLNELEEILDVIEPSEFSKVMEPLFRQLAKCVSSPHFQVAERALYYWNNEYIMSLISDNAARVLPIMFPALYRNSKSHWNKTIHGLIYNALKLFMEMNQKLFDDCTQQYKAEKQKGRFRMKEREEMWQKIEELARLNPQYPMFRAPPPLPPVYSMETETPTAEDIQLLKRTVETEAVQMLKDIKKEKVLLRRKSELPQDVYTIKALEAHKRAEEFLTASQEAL

GST-B56δ L183A = target: T3, GST-B56δ L183A (human, UniProt Q14738 1-602, L183A)
T3 construct: B56δ (PPP2R5D), human cDNA, full length, point mutant; source: E. coli BL21 (DE3), purified (glutathione Sepharose)
T3 sequence (Q14738 whole entry L183A): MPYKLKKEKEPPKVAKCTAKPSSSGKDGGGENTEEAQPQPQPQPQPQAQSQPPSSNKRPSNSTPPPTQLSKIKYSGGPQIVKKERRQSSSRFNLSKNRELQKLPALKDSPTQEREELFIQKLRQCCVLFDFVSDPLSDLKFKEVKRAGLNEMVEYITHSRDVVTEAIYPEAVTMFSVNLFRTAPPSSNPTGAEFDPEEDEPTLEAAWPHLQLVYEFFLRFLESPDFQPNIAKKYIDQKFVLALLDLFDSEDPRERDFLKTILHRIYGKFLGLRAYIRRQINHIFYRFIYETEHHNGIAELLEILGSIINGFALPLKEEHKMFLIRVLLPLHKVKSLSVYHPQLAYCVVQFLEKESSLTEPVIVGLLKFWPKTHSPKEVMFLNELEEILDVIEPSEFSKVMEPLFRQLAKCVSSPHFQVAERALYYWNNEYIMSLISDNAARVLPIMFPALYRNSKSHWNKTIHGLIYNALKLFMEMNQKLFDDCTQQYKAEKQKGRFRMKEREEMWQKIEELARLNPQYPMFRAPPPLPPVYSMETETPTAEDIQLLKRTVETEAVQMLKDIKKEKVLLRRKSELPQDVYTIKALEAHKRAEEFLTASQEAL

Kd (GST-B56δ): 5.04 nM | Kd (GST-B56δ H282A): 4.38 nM | Kd (GST-B56δ L183A): 5.59 nM
B1: 6xHis-tagged PPM1G (enzyme, human, UniProt O15355 1-546, looked up)
chain: MGAYLSQPNTVKCSGDGVGAPRLPLPYGFSAMQGWRVSMEDAHNCIPELDSETAMFSVYDGHGGEEVALYCAKYLPDIIKDQKAYKEGKLQKALEDAFLAIDAKLTTEEVIKELAQIAGRPTEDEDEKEKVADEDDVDNEEAALLHEEATMTIEELLTRYGQNCHKGPPHSKSGGGTGEEPGSQGLNGEAGPEDSTRETPSQENGPTAKAYTGFSSNSERGTEAGQVGEPGIPTGEAGPSCSSASDKLPRVAKSKFFEDSEDESDEAEEEEEDSEECSEEEDGYSSEEAENEEDEDDTEEAEEDDEEEEEEMMVPGMEGKEEPGSDSGTTAVVALIRGKQLIVANAGDSRCVVSEAGKALDMSYDHKPEDEVELARIKNAGGKVTMDGRVNGGLNLSRAIGDHFYKRNKNLPPEEQMISALPDIKVLTLTDDHEFMVIACDGIWNVMSSQEVVDFIQSKISQRDENGELRLLSSIVEELLDQCLAPDTSGDGTGCDNMTCIIICFKPRNTAELQPESGKRKLEEVLSTEGAEENGNSDKKKKAKRD
notes: PPM1G (PP2Cγ); The cloning into a His-tag vector is not described in the methods; also called His-PPM1G; recombinant PPM1G; source: recombinant
